Results as given in patent publication US20140005119A1, “COMPOSITIONS AND METHODS FOR INHIBITING THE ACTIVITY OF P110a MUTANT PROTEINS” (Case Western Reserve University, priority 2012, published 2014).

Target: T1, recombinant p110α E545K mutant protein (Homo sapiens, UniProt P42336, E545K)
T1 construct: 6×His; made in house; host or cells: Sf9 insect cells (baculovirus)
Assay: In vitro lipid kinase assay
Type: biochemical
Settings: either alone or in the presence of IRS1
Method: FIGS. 3(A-M) illustrate: (A, B) Mapping peptides (P3, SEQ ID NO: 1; P4 SEQ ID NO: 2; P5, SEQ ID NO: 3; P6, SEQ ID NO: 4) derived from mutant p110α that inhibit interaction between IRS1 and p110α E545K. The indicated peptides were added into cell lysates made from the p110α E545K 3×FLAG KI cells. Cell lysates were immunoprecipitated with beads conjugated with anti-FLAG antibodies and then blotted with anti-IRS1 antibodies. (C) Immunoblots of cell lysates made from the p110α E545K 3×FLAG KI cells. Cell lysates were immunoprecipitated with beads conjugated with anti-FLAG antibodies and then blotted with the indicated antibodies. (D) Immunoblots of cell lysate of Myc-tagged IRS1 plasmid, which co-transfected an ABD domain deletion construct of the FLAG-tagged p110α E545K mutant (ΔABD), incubated with the indicated amount of stapled p110α mutant peptides, and then immunoprecipitated with anti-FLAG antibodies and blotted with the indicated antibodies. (J, K) Immunoblot and graph of purified recombinant p110α E545K mutant proteins mixed with the indicated components and quantified using an in vitro lipid kinase assay. (L, M) Immunoblots of the indicated cell lines serum-starved, stimulated with 1 μg/ml insulin for 30 min, and then treated with or without the indicated peptides. Cell lysates were blotted with the indicated antibodies. All error bars show mean±SEM. *p<0.05, **p<0.001, t test. […]

T1 sequence (P42336 whole entry E545K): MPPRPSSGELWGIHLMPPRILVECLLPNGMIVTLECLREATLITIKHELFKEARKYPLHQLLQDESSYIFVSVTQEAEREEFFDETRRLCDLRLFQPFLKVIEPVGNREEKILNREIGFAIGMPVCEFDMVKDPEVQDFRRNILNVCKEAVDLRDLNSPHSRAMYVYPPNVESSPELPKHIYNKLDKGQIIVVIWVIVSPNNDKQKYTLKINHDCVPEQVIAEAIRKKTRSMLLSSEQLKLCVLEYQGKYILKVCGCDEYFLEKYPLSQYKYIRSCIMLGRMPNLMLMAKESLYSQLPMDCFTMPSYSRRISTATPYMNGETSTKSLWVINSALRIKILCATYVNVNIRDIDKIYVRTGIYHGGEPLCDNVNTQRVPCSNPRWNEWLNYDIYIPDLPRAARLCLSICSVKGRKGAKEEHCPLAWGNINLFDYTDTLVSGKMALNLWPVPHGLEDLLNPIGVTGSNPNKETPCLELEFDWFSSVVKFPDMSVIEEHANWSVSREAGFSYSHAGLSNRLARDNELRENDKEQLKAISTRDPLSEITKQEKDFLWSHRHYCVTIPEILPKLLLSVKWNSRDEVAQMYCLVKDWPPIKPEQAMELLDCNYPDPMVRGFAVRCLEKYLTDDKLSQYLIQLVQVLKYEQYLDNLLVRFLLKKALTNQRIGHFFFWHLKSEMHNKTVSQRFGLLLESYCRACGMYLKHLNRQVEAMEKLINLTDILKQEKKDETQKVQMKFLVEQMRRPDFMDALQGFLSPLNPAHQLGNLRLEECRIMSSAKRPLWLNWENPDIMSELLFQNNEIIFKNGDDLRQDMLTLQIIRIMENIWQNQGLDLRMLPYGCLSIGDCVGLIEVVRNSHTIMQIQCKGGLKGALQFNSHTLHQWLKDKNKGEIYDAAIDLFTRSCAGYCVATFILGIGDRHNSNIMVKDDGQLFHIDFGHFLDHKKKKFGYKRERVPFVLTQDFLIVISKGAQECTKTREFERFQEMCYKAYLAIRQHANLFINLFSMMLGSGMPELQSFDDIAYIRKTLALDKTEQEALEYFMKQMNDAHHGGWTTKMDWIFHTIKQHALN
T1 sequence (P27986 322-600 partner limits assumed): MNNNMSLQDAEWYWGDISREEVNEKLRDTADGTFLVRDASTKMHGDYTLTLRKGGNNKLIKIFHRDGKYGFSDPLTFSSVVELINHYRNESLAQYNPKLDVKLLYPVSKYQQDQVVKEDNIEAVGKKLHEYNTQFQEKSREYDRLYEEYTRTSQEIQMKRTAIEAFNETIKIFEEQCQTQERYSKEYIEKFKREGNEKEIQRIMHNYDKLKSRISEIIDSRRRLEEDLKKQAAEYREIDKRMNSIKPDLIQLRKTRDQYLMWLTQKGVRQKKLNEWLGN

kinase activity of recombinant p110α: no effect
Substance: H2N-SEITKQEK-D^549-FLW-S^553-HRHYC-COOH [stapled mutant peptide]
